Target: T1, GST-TNFAIP1(1–316) (UniProt Q13829 1-316)
T1 sequence (looked up): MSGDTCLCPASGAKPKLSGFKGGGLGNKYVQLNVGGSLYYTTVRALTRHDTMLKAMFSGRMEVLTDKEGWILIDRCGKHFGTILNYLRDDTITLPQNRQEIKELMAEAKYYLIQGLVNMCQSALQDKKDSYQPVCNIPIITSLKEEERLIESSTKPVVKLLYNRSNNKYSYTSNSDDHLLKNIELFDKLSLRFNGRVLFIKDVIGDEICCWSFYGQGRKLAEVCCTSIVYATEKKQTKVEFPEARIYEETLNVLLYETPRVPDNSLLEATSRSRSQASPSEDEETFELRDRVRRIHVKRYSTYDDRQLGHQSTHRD
Assay: pull-down

B1: His-CSNK2B (natural protein)
chain: not shown
Question: Does B1 bind?
Answer: Result: binds

From PMC6950786 (EBioMedicine, 2020)
